Laboratory results reported in patent US20060216339.

Tests used:
[1] = system: recombinant mammalian ERK2 (MAPK p42 protein, bacterial recombinant, already containing phospho-tyrosine-185)
[2] = system: purified recombinant Elk1 protein (Elk1-GST fusion protein) [GST: P08515]
Chain of purified recombinant Elk1 protein (Elk1-GST fusion protein) [GST: P08515] (P08515 whole entry, looked up, the tested form may be a part): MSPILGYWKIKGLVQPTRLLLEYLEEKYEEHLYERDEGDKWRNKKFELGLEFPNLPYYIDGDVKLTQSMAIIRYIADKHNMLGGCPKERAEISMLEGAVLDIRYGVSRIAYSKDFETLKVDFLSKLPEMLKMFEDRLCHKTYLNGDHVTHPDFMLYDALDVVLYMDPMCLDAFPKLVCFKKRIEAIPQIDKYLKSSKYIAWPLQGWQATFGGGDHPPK

| Substance | ERK2 activity (production of phospho-Elk1) [1] | phosphorylation of Elk1 at Ser^383 (Western blot with Ab^pElk1) [2] |
| --- | --- | --- |
| MEK1 (MAP kinase kinase 1)-GST fusion protein, activated by the catalytic subunit of MEKK1 | MEK1, which produces the maximally activated kinase | – |
| ERK2 activated by apPKG (doubly phosphorylated, T183 and Y185) | – | ERK2 activity was measured by the phosphorylation of Elk1 at Ser^383 |
| active apMAPK (phospho-apMAPK, dually phosphorylated at the T-E-Y site) | – | the apPKG-activated ap-MAPK phosphorylated its physiological substrate, Elk1, at the appropriate Ser^383 |
